Measurements reported in the supplement of paper PMC6757056.
± gives the standard deviation of the averaged measurements.

B1: library; a variant is named by its letters at N, in order (parent)
chain: GCUGUCACCGAGAAACUGUGAAGUAUAUCUUAAACCUGGGCACUUAAAAGAUAUAUGGAGUUAGUAGUGCAACCUGCUCGGUCUGAUGAGUCCNNNNNNGGACGAAACAGC

How the values were obtained:
cyclic di-GMP [1] = variants of: B1; experiment: FACS-Seq fitted mean relative fluorescence mCherry/BFP without ligand (log10 relative fluorescence); HEK293T; ligand: cyclic di-GMP (c-di-GMP-II aptamer); higher = higher reporter protein expression; conditions: ligand present: no
Description: (§1)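 Hammerhead (sTRSV) ribozyme switch libraries with a ligand aptamer grafted on stem I and a randomized N4-6 loop II, cloned into the 3' UTR of mCherry and transiently transfected into HEK293T cells; RNA-Seq 72 h post transfection with ligand added 1 h before transfection; RNA read count / plasmid DNA read count normalized to the non-cleaving sTRSVctl (x100), log10; sequences with >100 DNA reads. FACS-Seq: lentiviral library sorted into 6 bins after 48 h ligand, log-normal fit mean of mCherry/BFP scaled to controls. Printed sequences are partial switch sequences.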

cyclic di-GMP [2] = variants of: B1; experiment: normalized RNA/DNA level without ligand (relative to sTRSVctl = 100) (log10 (% of sTRSVctl)); HEK293T; ligand: cyclic di-GMP (c-di-GMP-II aptamer); higher = less ribozyme self-cleavage, higher mRNA level; conditions: reporter: mCherry (pCS4076), ligand present: no
Description: as §1

cyclic di-GMP [3] = variants of: B1; experiment: FACS-Seq fitted mean relative fluorescence mCherry/BFP with ligand (log10 relative fluorescence); HEK293T; ligand: cyclic di-GMP (c-di-GMP-II aptamer); ligand concentration (+) FACS-Seq: 1 mM; higher = higher reporter protein expression; conditions: ligand present: yes
Description: as §1

cyclic di-GMP [4] = variants of: B1; experiment: normalized RNA/DNA level with ligand (relative to sTRSVctl = 100) (log10 (% of sTRSVctl)); HEK293T; ligand: cyclic di-GMP (c-di-GMP-II aptamer); ligand concentration (+) RNA-Seq: 1 mM; higher = less ribozyme self-cleavage, higher mRNA level; conditions: reporter: mCherry (pCS4076), ligand present: yes
Description: as §1

| Variant | FACS-Seq fitted mean (log10) (cyclic di-GMP [1]) | normalized RNA/DNA level without ligand (log10) (cyclic di-GMP [2]) | FACS-Seq fitted mean (log10) (cyclic di-GMP [3]) | normalized RNA/DNA level with ligand (log10) (cyclic di-GMP [4]) |
| --- | --- | --- | --- | --- |
| UAUUAC | -0.992 ± 0.17 | 1.77 ± 0.039 | -0.849 ± 0.071 | 1.87 ± 0.095 |
| UAACUU | -0.637 ± 0.031 | 1.65 ± 0.005 | -0.458 ± 0.042 | 1.79 ± 0.12 |
| AGUAGG | -1.02 ± 0.098 | 1.63 ± 0.097 | -0.997 ± 0.068 | 1.75 ± 0.049 |
| GUACGG | 0.00232 ± 0.14 | 1.62 ± 0.053 | 0.333 ± 0.011 | 1.77 ± 0.059 |
| CAGUAA | -0.526 ± 0.094 | 1.14 ± 0.14 | -0.22 ± 0.0072 | 1.33 ± 0.073 |
| CAAGUA | -0.495 ± 0.0052 | 1.46 ± 0.13 | -0.203 ± 0.02 | 1.63 ± 0.07 |
| UACAGA | -0.198 ± 0.37 | 1.61 ± 0.052 | -0.101 ± 0.13 | 1.75 ± 0.14 |
| GGUUCC | 0.28 ± 0.17 | 1.8648 ± 0.0011 | 0.396 ± 0.056 | 1.96 ± 0.085 |
| CCCCAC | -0.891 ± 0.018 | 1.75 ± 0.033 | -0.665 ± 0.018 | 1.88 ± 0.097 |
| CGGUUA | -0.67 ± 0.04 | 1.27 ± 0.12 | -0.411 ± 0.028 | 1.43 ± 0.091 |
| AGACGC | -0.232 ± 0.099 | 1.65 ± 0.066 | -0.0488 ± 0.032 | 1.81 ± 0.098 |
| AAAUAA | -0.515 ± 0.032 | 1.45 ± 0.067 | -0.21 ± 0.07 | 1.68 ± 0.12 |
| CGUCUU | -0.365 ± 0.028 | 1.49 ± 0.033 | -0.103 ± 0.064 | 1.66 ± 0.12 |
| CGUCUA | -0.152 ± 0.067 | 1.26 ± 0.082 | 0.127 ± 0.011 | 1.45 ± 0.1 |
| AACAGU | -1.23 ± 0.038 | 1.57 ± 0.076 | -1.08 ± 0.027 | 1.76 ± 0.063 |
| UAGUGA | -0.51 ± 0.069 | 1.626 ± 0.0075 | -0.218 ± 0.016 | 1.77 ± 0.15 |
| UGUGAC | 0.123 ± 0.24 | 1.644 ± 0.015 | 0.27 ± 0.01 | 1.79 ± 0.082 |
| AACCAA | -0.517 ± 0.035 | 1.43 ± 0.082 | -0.235 ± 0.052 | 1.63 ± 0.1 |
| GUUCGA | -0.345 ± 0.023 | 1.6 ± 0.018 | 0.045 ± 0.055 | 1.75 ± 0.12 |
| AUUAGC | -0.0321 ± 0.09 | 1.6567 ± 0.0015 | 0.226 ± 0.11 | 1.76 ± 0.16 |
| UGACUC | -0.0587 ± 0.12 | 1.726 ± 0.0085 | 0.268 ± 0.025 | 1.86 ± 0.12 |
| AGGAGA | -0.574 ± 0.012 | 1.37 ± 0.12 | -0.304 ± 0.011 | 1.48 ± 0.025 |
| ACGGUA | -0.397 ± 0.031 | 1.37 ± 0.069 | -0.0373 ± 0.057 | 1.57 ± 0.14 |
| UAAGUA | -0.292 ± 0.034 | 1.609 ± 0.0095 | -0.0651 ± 0.011 | 1.78 ± 0.086 |

| Variant | FACS-Seq fitted mean (log10) (cyclic di-GMP [1]) | normalized RNA/DNA level without ligand (log10) (cyclic di-GMP [2]) | FACS-Seq fitted mean (log10) (cyclic di-GMP [3]) | normalized RNA/DNA level with ligand (log10) (cyclic di-GMP [4]) |
| --- | --- | --- | --- | --- |
| CGGUGA | -0.266 ± 0.011 | 1.4 ± 0.13 | 0.0909 ± 0.043 | 1.64 ± 0.12 |
| UGCGAG | -0.503 ± 0.0063 | 1.7 ± 0.039 | -0.177 ± 0.052 | 1.8 ± 0.081 |
| ACACAG | -0.515 ± 0.016 | 1.44 ± 0.084 | -0.191 ± 0.074 | 1.68 ± 0.11 |
| CGCAUG | -0.455 ± 0.031 | 1.627 ± 0.0082 | -0.162 ± 0.14 | 1.8 ± 0.12 |
| ACAAUA | -0.5113 ± 0.0047 | 1.33 ± 0.094 | -0.23 ± 0.047 | 1.55 ± 0.14 |
| AACUAA | -0.473 ± 0.029 | 1.51 ± 0.035 | -0.168 ± 0.1 | 1.74 ± 0.11 |
| AUGUAC | -0.466 ± 0.057 | 1.6256 ± 0.0011 | -0.129 ± 0.17 | 1.79 ± 0.077 |
| CCUCAA | 0.0135 ± 0.11 | 1.46 ± 0.1 | 0.263 ± 0.07 | 1.67 ± 0.066 |
| GACAUA | -0.45 ± 0.0083 | 1.52 ± 0.04 | -0.156 ± 0.096 | 1.68 ± 0.064 |
| CUGAUU | -0.154 ± 0.084 | 1.505 ± 0.015 | 0.107 ± 0.18 | 1.71 ± 0.12 |
| UAGGGU | -0.424 ± 0.015 | 1.61 ± 0.075 | -0.0926 ± 0.068 | 1.78 ± 0.13 |
| CGCUGU | 0.3 ± 0.092 | 1.776 ± 0.0024 | 0.433 ± 0.014 | 1.9 ± 0.13 |
| GAAUGG | -0.119 ± 0.036 | 1.62 ± 0.041 | 0.0864 ± 0.016 | 1.75 ± 0.086 |
| CCUGGC | -0.646 ± 0.017 | 1.68 ± 0.034 | -0.459 ± 0.0093 | 1.82 ± 0.14 |
| UAGGAA | -0.246 ± 0.044 | 1.49 ± 0.07 | -0.00386 ± 0.085 | 1.68 ± 0.16 |
| UGCAUG | -0.116 ± 0.0019 | 1.734 ± 0.0063 | 0.0785 ± 0.1 | 1.85 ± 0.13 |
| GUCCAA | 0.102 ± 0.033 | 1.57 ± 0.052 | 0.317 ± 0.11 | 1.74 ± 0.12 |
| ACAACU | -0.512 ± 0.13 | 1.57 ± 0.037 | -0.23 ± 0.091 | 1.76 ± 0.13 |
| ACAAGC | -0.263 ± 0.13 | 1.44 ± 0.045 | -0.052 ± 0.14 | 1.7 ± 0.12 |
| GAGCGC | -0.228 ± 0.14 | 1.79 ± 0.049 | -0.101 ± 0.16 | 1.83 ± 0.082 |
| UUCGGC | -0.553 ± 0.015 | 1.81 ± 0.029 | -0.447 ± 0.062 | 1.9 ± 0.086 |
| CCGCCA | -0.184 ± 0.045 | 1.645 ± 0.0073 | 0.127 ± 0.058 | 1.85 ± 0.14 |
| CCUUAA | -0.397 ± 0.009 | 1.45 ± 0.092 | -0.161 ± 0.043 | 1.63 ± 0.12 |
| CGCCUA | -0.608 ± 0.088 | 1.37 ± 0.12 | -0.414 ± 0.049 | 1.58 ± 0.12 |

| Variant | FACS-Seq fitted mean (log10) (cyclic di-GMP [1]) | normalized RNA/DNA level without ligand (log10) (cyclic di-GMP [2]) | FACS-Seq fitted mean (log10) (cyclic di-GMP [3]) | normalized RNA/DNA level with ligand (log10) (cyclic di-GMP [4]) |
| --- | --- | --- | --- | --- |
| GCAGCU | -0.242 ± 0.076 | 1.65 ± 0.018 | -0.0553 ± 0.039 | 1.78 ± 0.11 |
| GUCAGG | -1.25 ± 0.11 | 1.74 ± 0.063 | -0.78 ± 0.093 | 1.81 ± 0.087 |
| CUCAGA | -0.23 ± 0.18 | 1.64 ± 0.041 | 0.0277 ± 0.043 | 1.78 ± 0.064 |
| GUGAAU | -0.688 ± 0.083 | 1.57 ± 0.07 | -0.318 ± 0.04 | 1.75 ± 0.12 |
| UUGGCU | -0.121 ± 0.069 | 1.789 ± 0.009 | 0.192 ± 0.12 | 1.88 ± 0.15 |
| AACCCC | -0.0752 ± 0.016 | 1.78 ± 0.046 | 0.263 ± 0.041 | 1.89 ± 0.14 |
| GAACGU | -0.419 ± 0.027 | 1.54 ± 0.095 | -0.133 ± 0.0044 | 1.69 ± 0.092 |
| CCCGAA | -0.464 ± 0.055 | 1.39 ± 0.023 | -0.0882 ± 0.039 | 1.64 ± 0.13 |
| CUGUUA | -0.289 ± 0.046 | 1.33 ± 0.091 | 0.158 ± 0.13 | 1.58 ± 0.084 |
| UUAGUG | -0.38 ± 0.014 | 1.625 ± 0.0063 | -0.0431 ± 0.00068 | 1.81 ± 0.091 |
| UGAGUC | -0.147 ± 0.039 | 1.7273 ± 0.0012 | 0.117 ± 0.074 | 1.87 ± 0.14 |
| ACUGAA | -0.493 ± 0.087 | 1.43 ± 0.09 | -0.161 ± 0.014 | 1.64 ± 0.074 |
| ACUGAU | -0.368 ± 0.075 | 1.43 ± 0.11 | -0.128 ± 0.13 | 1.62 ± 0.11 |
| CAGUUC | -0.4497 ± 0.0028 | 1.66 ± 0.038 | -0.1164 ± 0.00072 | 1.82 ± 0.097 |
| AUUACG | -0.439 ± 0.014 | 1.67 ± 0.032 | -0.0914 ± 0.065 | 1.83 ± 0.072 |
| UCACCA | 0.0707 ± 0.26 | 1.694 ± 0.0047 | 0.366 ± 0.022 | 1.84 ± 0.14 |
| AGUAAU | 0.353 ± 0.055 | 1.7 ± 0.006 | 0.4462 ± 0.0042 | 1.83 ± 0.097 |
| ACGGAA | -0.62 ± 0.042 | 1.31 ± 0.097 | -0.325 ± 0.031 | 1.47 ± 0.13 |
| ACGGAU | -0.662 ± 0.045 | 1.29 ± 0.16 | -0.374 ± 0.0087 | 1.4 ± 0.15 |
| CUUUCC | 0.0673 ± 0.015 | 1.82 ± 0.038 | 0.163 ± 0.01 | 1.93 ± 0.11 |
| GCUCGU | -0.452 ± 0.016 | 1.692 ± 0.015 | -0.0822 ± 0.049 | 1.83 ± 0.038 |
| AGAAAC | 0.0659 ± 0.072 | 1.617 ± 0.0019 | 0.343 ± 0.052 | 1.8 ± 0.12 |
| AAUGGG | -0.71 ± 0.015 | 1.4 ± 0.11 | -0.453 ± 0.035 | 1.57 ± 0.076 |
| AGGGAG | -0.66 ± 0.02 | 1.6 ± 0.05 | -0.378 ± 0.013 | 1.73 ± 0.084 |
